These results are taken from US20190077860A1 (EISAI R AND D MANAGEMENT, published 2019).

One may read the Kd as the free concentration of one partner at which half of the binding sites on the other are occupied at equilibrium, for simple one-to-one binding. Higher therefore signals lower affinity. As usually defined, the koff is a measure of how fast the partners let go of each other. The low end stands for slow dissociation, the high end for fast dissociation. In general, kon refers to the second-order rate constant of association. A lower kon goes with slower complex formation. Usually IC50 stands for the point on the concentration scale where inhibition reaches its midpoint. High values mean a need for much substance, low ones inhibition by little substance.

Experiment [1] concerns the target T1, human EphA8 extracellular region-SEAP-His protein (human, UniProt P29322 28-542).
T1 construct: extracellular domain; also called hEphA8-SEAP-His
T1 sequence (looked up): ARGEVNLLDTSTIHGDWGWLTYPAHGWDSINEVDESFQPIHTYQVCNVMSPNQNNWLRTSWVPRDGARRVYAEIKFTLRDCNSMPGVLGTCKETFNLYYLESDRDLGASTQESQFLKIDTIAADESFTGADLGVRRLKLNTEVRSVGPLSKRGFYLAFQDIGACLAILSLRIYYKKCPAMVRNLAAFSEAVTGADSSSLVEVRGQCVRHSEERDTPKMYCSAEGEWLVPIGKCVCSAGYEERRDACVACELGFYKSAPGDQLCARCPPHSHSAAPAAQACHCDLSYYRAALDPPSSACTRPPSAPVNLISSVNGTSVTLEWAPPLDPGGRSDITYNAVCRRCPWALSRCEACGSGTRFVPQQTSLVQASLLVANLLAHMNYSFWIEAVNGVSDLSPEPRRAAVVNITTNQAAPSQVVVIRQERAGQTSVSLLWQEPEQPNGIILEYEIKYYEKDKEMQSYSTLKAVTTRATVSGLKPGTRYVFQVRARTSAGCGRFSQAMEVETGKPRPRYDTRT
Nature of the experiment: ELISA. (ELISA stands for enzyme-linked immunosorbent assay.)

Experiment [2] deals with T2, human EphA4 extracellular region-SEAP-His protein (human, UniProt P54764 20-547).
T2 construct: also called hEphA4-SEAP-His
Nature of the experiment: ELISA.

Experiment [3] addresses T2, human EphA4 extracellular …. Nature of the experiment: SPR, Ab captured. Put shortly: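 Affinity (KD=kd/ka) obtained by fitting SPR curves to a 1:1 model. Analyte was human EphA4 extracellular region-SEAP-His, injected sequentially from 0.6 to 50 nM in HBS-EP (120 s on, 900 s off), onto humanized antibodies on protein A or antibody A on anti-mouse IgG1 surfaces, capture level about 30–60 RU.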
In general terms: Surface plasmon resonance follows binding to a sensor surface in real time, without labels.

Experiment [4] shares this target. Kind of experiment: competition ELISA, competitor human Ephrin A5-Fc. Put shortly:
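Ligand binding to captured receptor measured as A450 after HRP-streptavidin/TMBZ development and acid stop. Receptor fusion (10 nM final) was immobilised via anti-alkaline phosphatase antibody; biotinylated Ephrin A5-Fc (0.7 nM final) added together with antibody titrations from 0 to 3000 nM, 1 h, room temperature.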

T2 sequence (P54764 20-547): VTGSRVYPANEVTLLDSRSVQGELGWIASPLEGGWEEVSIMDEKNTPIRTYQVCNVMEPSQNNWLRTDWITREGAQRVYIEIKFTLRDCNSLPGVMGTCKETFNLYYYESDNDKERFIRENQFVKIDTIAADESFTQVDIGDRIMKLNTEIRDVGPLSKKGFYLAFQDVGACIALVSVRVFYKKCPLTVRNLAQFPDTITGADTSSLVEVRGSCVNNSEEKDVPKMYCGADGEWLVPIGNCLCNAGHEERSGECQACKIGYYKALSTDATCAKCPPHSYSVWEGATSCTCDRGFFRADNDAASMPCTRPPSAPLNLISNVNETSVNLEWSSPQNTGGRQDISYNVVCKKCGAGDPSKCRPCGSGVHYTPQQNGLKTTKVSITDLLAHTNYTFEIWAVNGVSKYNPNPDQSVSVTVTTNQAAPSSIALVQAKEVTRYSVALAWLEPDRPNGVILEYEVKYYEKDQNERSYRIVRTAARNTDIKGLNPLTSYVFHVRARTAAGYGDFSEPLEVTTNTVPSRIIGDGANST

B1: humanized antibody No. 136 (antibody, human IgG2)
heavy: QVQLVQSGSELKKPGASVKVSCKASGYTFTDYSMHWVRQAPGQGLKWMGWINTETGEPTYADDFKGRFVFSLDTSVSTAYLQISSLKAEDTAVYYCARIPLYYYGSRYWYFDVWGQGTTVTVSSASTKGPSVFPLAPSSRSTSESTAALGCLVKDYFPEPVTVSWNSGALTSGVHTFPAVLQSSGLYSLSSVVTVPSSNFGTQTYTCNVDHKPSNTKVDKTVERKSCVECPPCPAPPAAAPSVFLFPPKPKDTLMISRTPEVTCVVVDVSHEDPEVQFNWYVDGVEVHNAKTKPREEQFNSTFRVVSVLTVVHQDWLNGKEYKCKVSNKGLPAPIEKTISKTKGQPREPQVYTLPPSREEMTKNQVSLTCLVKGFYPSDIAVEWESNGQPENNYKTTPPMLDSDGSFFLYSKLTVDKSRWQQGNVFSCSVMHEALHNHYTQKSLSLSPG
light: EIVMTQSPATLSVSPGERATLSCRASENIYRNLAWYQQKPGQSPRLLIYAATNLADGIPARFSGSGSGTEYTLTISSLQSEDFAVYYCQHFWGTPWTFGQGTKVEIKRTVAAPSVFIFPPSDEQLKSGTASVVCLLNNFYPREAKVQWKVDNALQSGNSQESVTEQDSKDSTYSLSSTLTLSKADYEKHKVYACEVTHQGLSSPVTKSFNRGEC
notes: human Ig kappa; also called L2-4/HK2
Regarding B1, the “A450 as % of hEphA4-SEAP-His” value in experiment [1] came to 5.4%. Also, the “A450 as % of hEphA4-SEAP-His” value in experiment [2] worked out at 100%. In experiment [3], this molecule yielded a Kd of 1.4 nM, a koff of 0.00039 s⁻¹ and an on-rate constant (kon) of 290000 M⁻¹ s⁻¹. Moreover, in experiment [4], the half-maximal inhibitory concentration (IC50) is 2.5 nM.

B2: humanized antibody No. 94 (antibody, human IgG1, kappa)
heavy: QVQLVQSGSELKKPGASVKVSCKASGYTFTDYSMHWVRQAPGQGLKWMGWINTETGEPTYAQGFTGRFVFSLDTSVSTAYLQISSLKAEDTAVYYCARIPLYYYGSRYWYFDVWGQGTTVTVSSASTKGPSVFPLAPSSKSTSGGTAALGCLVKDYFPEPVTVSWNSGALTSGVHTFPAVLQSSGLYSLSSVVTVPSSSLGTQTYICNVNHKPSNTKVDKRVEPKSCDKTHTCPPCPAPPAAAPSVFLFPPKPKDTLMISRTPEVTCVVVDVSHEDPEVQFNWYVDGVEVHNAKTKPREEQFNSTFRVVSVLTVVHQDWLNGKEYKCKVSNKGLPAPIEKTISKTKGQPREPQVYTLPPSREEMTKNQVSLTCLVKGFYPSDIAVEWESNGQPENNYKTTPPMLDSDGSFFLYSKLTVDKSRWQQGNVFSCSVMHEALHNHYTQKSLSLSPG
light: EIVMTQSPATLSVSPGERATLSCRASENIYRNLAWYQQKPGQSPRLLIYAATNLADGIPARFSGSGSGTEYTLTISSLQSEDFAVYYCQHFWGTPWTFGQGTKVEIKRTVAAPSVFIFPPSDEQLKSGTASVVCLLNNFYPREAKVQWKVDNALQSGNSQESVTEQDSKDSTYSLSSTLTLSKADYEKHKVYACEVTHQGLSSPVTKSFNRGEC
notes: human Ig kappa; also called L2-4/HA2
Consider B2, for which, in experiment [1], the “A450 as % of hEphA4-SEAP-His” value came out at 7%. Further, the “A450 as % of hEphA4-SEAP-His” value in experiment [2] is 100%. Moreover, in experiment [3], the dissociation constant (Kd) was 0.95 nM, the koff worked out at 0.00024 s⁻¹ and the kon is 260000 M⁻¹ s⁻¹. This molecule yielded a concentration for half-maximal inhibition (IC50) in experiment [4] of 2.7 nM.

B3: humanized antibody No. 93 (antibody, human IgG1, kappa)
heavy: QVQLVQSGSELKKPGASVKVSCKASGYTFTDYSMHWVRQAPGQGLEWMGWINTETGEPTYAQGFTGRFVFSLDTSVSTAYLQISSLKAEDTAVYYCARIPLYYYGSRYWYFDVWGQGTTVTVSSASTKGPSVFPLAPSSKSTSGGTAALGCLVKDYFPEPVTVSWNSGALTSGVHTFPAVLQSSGLYSLSSVVTVPSSSLGTQTYICNVNHKPSNTKVDKRVEPKSCDKTHTCPPCPAPPAAAPSVFLFPPKPKDTLMISRTPEVTCVVVDVSHEDPEVQFNWYVDGVEVHNAKTKPREEQFNSTFRVVSVLTVVHQDWLNGKEYKCKVSNKGLPAPIEKTISKTKGQPREPQVYTLPPSREEMTKNQVSLTCLVKGFYPSDIAVEWESNGQPENNYKTTPPMLDSDGSFFLYSKLTVDKSRWQQGNVFSCSVMHEALHNHYTQKSLSLSPG
light: EIVMTQSPATLSVSPGERATLSCRASENIYRNLAWYQQKPGQSPRLLIYAATNLADGIPARFSGSGSGTEYTLTISSLQSEDFAVYYCQHFWGTPWTFGQGTKVEIKRTVAAPSVFIFPPSDEQLKSGTASVVCLLNNFYPREAKVQWKVDNALQSGNSQESVTEQDSKDSTYSLSSTLTLSKADYEKHKVYACEVTHQGLSSPVTKSFNRGEC
notes: human Ig kappa; also called L2-4/HA1
Take B3: the “A450 as % of hEphA4-SEAP-His” value in experiment [1] came to 5%. For the same molecule, the “A450 as % of hEphA4-SEAP-His” value in experiment [2] came to 100%. Further, in experiment [3], the dissociation constant Kd is 0.77 nM, the koff turned out to be 0.00024 s⁻¹ and the kon was 310000 M⁻¹ s⁻¹. This molecule came in with an IC50 in experiment [4] of 2.5 nM.

B4: humanized antibody No. 71 (antibody, human IgG1, kappa)
heavy: QIQLVQSGSELKKPGASVKVSCKASGYTFTDYSMHWVRQAPGQGLKWMGWINTETGEPTYAQGFTGRFVFSLDTSVSTAYLQISSLKAEDTAVYYCARIPLYYYGSRYWYFDVWGQGTTVTVSSASTKGPSVFPLAPSSKSTSGGTAALGCLVKDYFPEPVTVSWNSGALTSGVHTFPAVLQSSGLYSLSSVVTVPSSSLGTQTYICNVNHKPSNTKVDKRVEPKSCDKTHTCPPCPAPPAAAPSVFLFPPKPKDTLMISRTPEVTCVVVDVSHEDPEVQFNWYVDGVEVHNAKTKPREEQFNSTFRVVSVLTVVHQDWLNGKEYKCKVSNKGLPAPIEKTISKTKGQPREPQVYTLPPSREEMTKNQVSLTCLVKGFYPSDIAVEWESNGQPENNYKTTPPMLDSDGSFFLYSKLTVDKSRWQQGNVFSCSVMHEALHNHYTQKSLSLSPG
light: EIVMTQSPATLSVSPGERATLSCRASENIYRNLAWYQQKPGQSPRLLIYAATNLADGIPARFSGSGSGTEYTLTISSLQSEDFAVYYCQHFWGTPWTFGQGTKVEIKRTVAAPSVFIFPPSDEQLKSGTASVVCLLNNFYPREAKVQWKVDNALQSGNSQESVTEQDSKDSTYSLSSTLTLSKADYEKHKVYACEVTHQGLSSPVTKSFNRGEC
notes: human Ig kappa; also called L2-4/HA4
As to B4, in experiment [1], the “A450 as % of hEphA4-SEAP-His” value came to 5.3%. The “A450 as % of hEphA4-SEAP-His” value in experiment [2] turned out to be 100%. For the same molecule, in experiment [3], binding was put at a Kd of 0.82 nM, the off-rate constant (koff) was determined as 0.00023 s⁻¹ and the on-rate constant (kon) was determined as 280000 M⁻¹ s⁻¹. In addition, in experiment [4], the IC50 amounted to 2.5 nM.

B5: humanized antibody No. 73 (antibody, human IgG1, kappa)
heavy: QIQLVQSGSELKKPGASVKVSCKASGYTFTDYSMHWVRQAPGQGLKWMGWINTETGEPTYADDFKGRFVFSLDTSVSTAYLQISSLKAEDTAVYYCARIPLYYYGSRYWYFDVWGQGTTVTVSSASTKGPSVFPLAPSSKSTSGGTAALGCLVKDYFPEPVTVSWNSGALTSGVHTFPAVLQSSGLYSLSSVVTVPSSSLGTQTYICNVNHKPSNTKVDKRVEPKSCDKTHTCPPCPAPPAAAPSVFLFPPKPKDTLMISRTPEVTCVVVDVSHEDPEVQFNWYVDGVEVHNAKTKPREEQFNSTFRVVSVLTVVHQDWLNGKEYKCKVSNKGLPAPIEKTISKTKGQPREPQVYTLPPSREEMTKNQVSLTCLVKGFYPSDIAVEWESNGQPENNYKTTPPMLDSDGSFFLYSKLTVDKSRWQQGNVFSCSVMHEALHNHYTQKSLSLSPG
light: EIVMTQSPATLSVSPGERATLSCRASENIYRNLAWYQQKPGQSPRLLIYAATNLADGIPARFSGSGSGTEYTLTISSLQSEDFAVYYCQHFWGTPWTFGQGTKVEIKRTVAAPSVFIFPPSDEQLKSGTASVVCLLNNFYPREAKVQWKVDNALQSGNSQESVTEQDSKDSTYSLSSTLTLSKADYEKHKVYACEVTHQGLSSPVTKSFNRGEC
notes: human Ig kappa; also called L2-4/HK4
As to B5, in experiment [1], the “A450 as % of hEphA4-SEAP-His” value was 5.8%. In addition, the “A450 as % of hEphA4-SEAP-His” value in experiment [2] is 100%. In addition, in experiment [3], the equilibrium dissociation constant (Kd) came to 0.93 nM, the off-rate (koff) was determined as 0.00027 s⁻¹ and the kon turned out to be 290000 M⁻¹ s⁻¹. In addition, the IC50 in experiment [4] was 2.4 nM.

B6: humanized antibody No. 137 (antibody, human IgG2)
heavy: QIQLVQSGSELKKPGASVKVSCKASGYTFTDYSMHWVRQAPGQGLKWMGWINTETGEPTYADDFKGRFVFSLDTSVSTAYLQISSLKAEDTAVYYCARIPLYYYGSRYWYFDVWGQGTTVTVSSASTKGPSVFPLAPSSRSTSESTAALGCLVKDYFPEPVTVSWNSGALTSGVHTFPAVLQSSGLYSLSSVVTVPSSNFGTQTYTCNVDHKPSNTKVDKTVERKSCVECPPCPAPPAAAPSVFLFPPKPKDTLMISRTPEVTCVVVDVSHEDPEVQFNWYVDGVEVHNAKTKPREEQFNSTFRVVSVLTVVHQDWLNGKEYKCKVSNKGLPAPIEKTISKTKGQPREPQVYTLPPSREEMTKNQVSLTCLVKGFYPSDIAVEWESNGQPENNYKTTPPMLDSDGSFFLYSKLTVDKSRWQQGNVFSCSVMHEALHNHYTQKSLSLSPG
light: EIVMTQSPATLSVSPGERATLSCRASENIYRNLAWYQQKPGQSPRLLIYAATNLADGIPARFSGSGSGTEYTLTISSLQSEDFAVYYCQHFWGTPWTFGQGTKVEIKRTVAAPSVFIFPPSDEQLKSGTASVVCLLNNFYPREAKVQWKVDNALQSGNSQESVTEQDSKDSTYSLSSTLTLSKADYEKHKVYACEVTHQGLSSPVTKSFNRGEC
notes: as for B5
For the molecule B6, the “A450 as % of hEphA4-SEAP-His” value in experiment [1] turned out to be 5.9%. Moreover, the “A450 as % of hEphA4-SEAP-His” value in experiment [2] was 100%. Further, in experiment [3], the dissociation constant Kd was 1.3 nM, the koff was found to be 0.00039 s⁻¹ and the kon worked out at 290000 M⁻¹ s⁻¹. This molecule also registered a half-maximal inhibitory concentration (IC50) in experiment [4] of 2.5 nM.
